Results published in patent US20110263451A1, “BIOLOGICAL MARKERS PREDICTIVE OF RHEUMATOID ARTHRITIS RESPONSE TO LYMPHOTOXIN ANTAGONISTS” (GENENTECH, INC, priority 2008, published 2011).

Legend:
solLTαβ [1] = experiment: solLTαβ levels in serum of CIA mice (murine LTαβ ECLA); format: in vivo, mouse (DBA-1J); details: 6 mg/kg s.c. three times weekly, treated for 11 days, FIG. 4A
Description: (§1) Soluble mouse LTαβ was measured using streptavidin coated 96-Well Microtiter plates (Meso Scale Discovery). Wells were then blocked with 150 uL of PBS containing 5% bovine serum albumin for 1-2 hours. Twenty-five uL per well of 1 μg/ml murine LTβR-Fc-biotin (R&D Systems) diluted in PBS/0.05% Tween® was then incubated with the blocked plate for 30 minutes. The wells were washed 6× with PBS containing 0.05% Tween®-20 (PBS/Tween®) and a titration curve of recombinant mouse LTα1β2 (R&D Systems), controls and unknown test samples diluted in high salt assay diluent (PBS, 0.5% BSA, 0.05% Tween® 20, 10 ppm Proclin, 5 mM EDTA, 0.2% BGG, 0.25% CHAPS+3.5 mM NaCl pH 7.4) were added at 25 μl/well and incubated for 2 hours. The wells were washed 6× with PBS/Tween® and an anti-LTα monoclonal antibody (N3EV) (Genentech) labeled with SULFO-TAG® NHS (Meso Scale Discovery) was diluted to 3 ug/ml in assay diluent and added to the wells at 25 μl/well for 1 hour. The plate was washed with wash buffer 6× and 150 μl/well of Read Buffer T (Meso Scale Discovery) diluted 1:2 in H20 was added to the plate. The plate was immediately read on an MA6000 SECTOR™ Imager (Meso Scale Discovery). A weighted 4-parameter fit curve was plotted using XLFit (Guildford, UK) from the resulting standard curve values and unknown concentrations were extrapolated. […]

solLTαβ [2] = experiment: solLTαβ levels in serum of EAE mice (murine LTαβ ECLA); format: in vivo, mouse (SJL/J); details: 6 mg/kg s.c. three times a week, FIG. 3
Description: as §1, with “The wells were washed 6× with PBS/Tween® and an anti-LTα monoclonal antibody (N3EV) (Genentech) labeled with SULFO-TAG® NHS (Meso Scale Discovery) was diluted to 3 ug/ml in assay diluent and added to the wells at 25 μl/well for 1 hour.” left out, “Discovery).” for “Discovery). A weighted 4-parameter fit curve was plotted using XLFit (Guildford, UK) from the resulting standard curve values and unknown concentrations were extrapolated.”
Female SJL/J mice were immunized intradermally at the base of the tail with 200 μl of emulsion containing 150 μg of peptide PLP 139-151 in 100 μl of PBS and 100 μl of CFA. […] Animals were evaluated daily for clinical signs using the same grading system as for the transgenic mice.

B1: muLTβR-Fc: recombinant murine LTβ receptor conjugated to an immunoglobulin Fc region (murine IgG2a Fc) (protein)
chain: QLVPPYRIENQTCWDQDKEYYEPMHDVCCSRCPPGEFVFAVCSRSQDTVCKTCPHNSYNEHWNHLSTCQLCRPCDIVLGFEEVAPCTSDRKAECRCQPGMSCVYLDNECVHCEEERLVLCQPGTEAEVTDEIMDTDVNCVPCKPGHFQNTSSPRARCQPHTRCEIQGLVEAAPGTSYSDTICKNPPEPGAML
modifications: left off: a dimerising Fc or GST
solLTαβ [1]
  solLTαβ levels in serum: Elevated
solLTαβ [2]
  solLTαβ levels in serum: Elevated
